From paper PMC5360526 (Hepatology (Baltimore, Md.), 2017)

Target: Recombinant human MATα1 (human, UniProt Q00266 1-395)
Test: pull-down

Recombinant human MATα1, sequence (Q00266 whole entry): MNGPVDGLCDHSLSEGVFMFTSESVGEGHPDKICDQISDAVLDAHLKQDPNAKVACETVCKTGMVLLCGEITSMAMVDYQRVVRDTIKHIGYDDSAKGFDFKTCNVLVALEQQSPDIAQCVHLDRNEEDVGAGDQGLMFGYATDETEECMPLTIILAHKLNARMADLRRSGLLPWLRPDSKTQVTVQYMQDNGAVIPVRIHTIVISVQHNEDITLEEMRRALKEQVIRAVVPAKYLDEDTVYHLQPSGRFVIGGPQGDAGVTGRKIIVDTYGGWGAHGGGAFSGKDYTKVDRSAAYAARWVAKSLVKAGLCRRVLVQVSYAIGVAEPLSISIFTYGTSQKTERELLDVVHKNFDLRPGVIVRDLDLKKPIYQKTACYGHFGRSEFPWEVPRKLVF

B1: Recombinant human PHB1 (natural protein, UniProt P35232 1-272, looked up)
chain: MAAKVFESIGKFGLALAVAGGVVNSALYNVDAGHRAVIFDRFRGVQDIVVGEGTHFLIPWVQKPIIFDCRSRPRNVPVITGSKDLQNVNITLRILFRPVASQLPRIFTSIGEDYDERVLPSITTEILKSVVARFDAGELITQRELVSRQVSDDLTERAATFGLILDDVSLTHLTFGKEFTEAVEAKQVAQQEAERARFVVEKAEQQKKAAIISAEGDSKAAELIANSLATAGDGLIELRKLEAAEDIAYQLSRSRNITYLPAGQSVLLQLPQ
  binding result: binds
